Data from PMC11703348, “Role of Aspartate 42 and Histidine 79 in the aiPLA2 activity and oligomeric status of Prdx6 at low pH” (Research Square, 2024).

Columns and labels:
[1] = target: the molecule itself; test: dynamic light scattering; pH 7.4; protein 2 mg/ml, 25 °C; hydrodynamic diameter and volume fraction (Zetasizer)
[2] = target: the molecule itself; test: native gel or EMSA; native-PAGE at neutral pH: 50 mM Tris-HCl, 100 mM NaCl pH 7.4, running buffer 35 mM Hepes, 43 mM imidazole pH 7.4; continuous 7.5% gel, non-reducing, non-denaturing; markers BSA and ferritin
[3] = target: the molecule itself; test: native gel or EMSA; native-PAGE at low pH: 40 mM Na-acetate pH 4, running buffer 30 mM beta alanine, 20 mM lactic acid pH 3.8, reverse polarity; continuous 7.5% gel, non-reducing, non-denaturing; markers BSA and ferritin

B1: Peroxiredoxin 6 (Prdx6), recombinant rat wild type (enzyme, UniProt O35244 1-224, looked up)
chain: MPGGLLLGDEAPNFEANTTIGHIRFHDFLGDSWGILFSHPRDFTPVCTTELGRAAKLAPEFAKRNVKLIALSIDSVEDHFAWSKDINAYNGAAPTEKLPFPIIDDKDRDLAILLGMLDPAEKDEKGMPVTARVVFIFGPDKKLKLSILYPATTGRNFDEILRVVDSLQLTASNPVATPVDWKKGESVMVLPTLPEEEAKQLFPKGVFTKELPSGKKYLRYTPQP
notes: Peroxiredoxin 6 (Prdx6), rat, wild type; cloned between the NdeI and SapI sites of pTYB1; no extra residues remain after intein self-cleavage; also called Wt Prdx6; WT Prdx6
B1 was tested, and the “stoichiometry N” value [1] was 2.

B2: H79A Prdx6 (His79 to Ala mutant of rat Prdx6) (enzyme, UniProt O35244 1-224, looked up)
chain: MPGGLLLGDEAPNFEANTTIGHIRFHDFLGDSWGILFSHPRDFTPVCTTELGRAAKLAPEFAKRNVKLIALSIDSVEDAFAWSKDINAYNGAAPTEKLPFPIIDDKDRDLAILLGMLDPAEKDEKGMPVTARVVFIFGPDKKLKLSILYPATTGRNFDEILRVVDSLQLTASNPVATPVDWKKGESVMVLPTLPEEEAKQLFPKGVFTKELPSGKKYLRYTPQP
notes: Peroxiredoxin 6 (Prdx6), rat, with His79 replaced by Ala (QuikChange mutagenesis); Same construct as m1 with the point mutation; also called His79A; His79-Ala
In the case of B2, the “stoichiometry N” value [2] is reported as 2 and the “stoichiometry N” value [3] is reported as roughly 2.

B3: D42A Prdx6 (Asp42 to Ala mutant of rat Prdx6) (enzyme, UniProt O35244 1-224, looked up)
chain: MPGGLLLGDEAPNFEANTTIGHIRFHDFLGDSWGILFSHPRAFTPVCTTELGRAAKLAPEFAKRNVKLIALSIDSVEDHFAWSKDINAYNGAAPTEKLPFPIIDDKDRDLAILLGMLDPAEKDEKGMPVTARVVFIFGPDKKLKLSILYPATTGRNFDEILRVVDSLQLTASNPVATPVDWKKGESVMVLPTLPEEEAKQLFPKGVFTKELPSGKKYLRYTPQP
notes: Peroxiredoxin 6 (Prdx6), rat, with Asp42 replaced by Ala (QuikChange mutagenesis); the methods print it once as Asp43Ala; Same construct as m1 with the point mutation; also called Asp42A; Asp42-Ala
For B3, the “stoichiometry N” value [2] was 2 and the “stoichiometry N” value [3] was roughly 2.
